Source: patent publication EP4813396A2 (Amphivena Therapeutics, Inc., dated 2026)
Substitutions are numbered along the chain they refer to.

B1: CD33/CD3 tandem diabody 24 (bispecific antibody)
chain: DIQMTQSPSSLSASVGDRVTITCRSSTGAVTTSNYANWVQQKPGKAPKALIGGTNKRAPGVPSRFSGSLIGDKATLTISSLQPEDFATYYCALWYSNLWVFGQGTKVEIKGGSGGSQVQLVQSGAEVKKPGSSVKVSCKASGGTFDSYAISWVRQAPGQGLEWMGGIIPIFGSAHYSQKFQGRVTITADESTSTAYMELSSLRSEDTAVYYCAREYYYDSSEWAFDIWGQGTLVTVSSGGSGQSVLTQPPSASGTPGQRVTISCSGSSSNIGDNVVNWYQQLPGTAPKLLIYSTNKRPSGVPDRFSGSKSGSSASLAISGLQSEDEADYYCAAWDDSLSAYVFGGGTKLTVLGGSGGSEVQLVESGGGLVQPGGSLRLSCAASGFTFSTYAMNWVRQAPGKGLEWVGRIRSKYNNYATYYADSVKDRFTISRDDSKNSLYLQMNSLKTEDTAVYYCARHGNFGNSYVSYFAYWGQGTLVTVSSAAAGSHHHHHH
notes: Non-covalent homodimer; domain order 1; also called TandAb 24
B2: CD33/CD3 tandem diabody 23 (bispecific antibody)
chain: DIQMTQSPSSLSASVGDRVTITCRSSTGAVTTSNYANWVQQKPGKAPKGLIGGTNKRAPGVPSRFSGSLIGTDFTLTISSLQPEDFATYYCALWYSNLWVFGQGTKVEIKGGSGGSQVQLVQSGAEVKKPGSSVKVSCKASGGTFSSYGISWVRQAPGQGLEWMGGIIPIFGSAHYAQKFQGRVTITADESTSTAYMELSSLRSEDTAVYYCAREYYYDSSEWAFDIWGQGTLVTVSSGGSGQSVLTQPPSASGTPGQRVTISCSGSSSNIGSNTVKWYQQLPGTAPKLLIYSNNQRSSGVPDRFSGSKSGSSASLAISGLQSEDEADYYCAAWDDSLNGYVFGGGTKLTVLGGSGGSEVQLVESGGGLVQPGGSLRLSCAASGFTFSTYAMNWVRQAPGKGLEWVGRIRSKYNNYATYYADSVKDRFTISRDDSKNSLYLQMNSLKTEDTAVYYCARHGNFGNSYVSWFAYWGQGTLVTVSS
notes: Non-covalent homodimer; domain order 1; also called TandAb 23
B3: CD33/CD3 tandem diabody 05 (bispecific antibody)
chain: DIQMTQSPSSLSASVGDRVTITCRSSTGAVTTSNYANWVQQKPGKAPKGLIGGTNKRAPGVPARFSGSGSGTDFTLTISSLQPEDFATYYCALWYSNLWVFGQGTKVEIKGGSGGSQVQLVQSGAEVKKPGASVKVSCKASGYTFTSYDINWVRQAPGQGLEWMGWMNPNSGNTGFAQKFQGRVTMTRDTSTSTVYMELSSLRSEDTAVYYCARDRANTDYSFGMDVWGQGTLVTVSSGGSGGQSVLTQPPSASGTPGQRVTISCSGSRSNIGSNTVNWYQQLPGTAPKLLIYGNNQRPSGVPDRFSGSKSGTSASLAISGLQSEDEADYYCATWDDSLIGWVFGGGTKLTVLGGSGGSEVQLVESGGGLVQPGGSLRLSCAASGFTFSTYAMNWVRQAPGKGLEWVGRIRSKYNNYATYYADSVKDRFTISRDDSKNSLYLQMNSLKTEDTAVYYCARHGNFGNSYVSWFAYWGQGTLVTVSSAAAGSHHHHHH
notes: Non-covalent homodimer; domain order 1; also called TandAb 05; tandem diabody 5
B4: CD33/CD3 tandem diabody 06 (bispecific antibody)
chain: B3 chain with F223L
notes: Non-covalent homodimer; domain order 1; also called TandAb 06; tandem diabody 6

Molecular target: T1, human CD33 on cells (human, UniProt P20138 18-364)
T1 sequence (P20138 18-364): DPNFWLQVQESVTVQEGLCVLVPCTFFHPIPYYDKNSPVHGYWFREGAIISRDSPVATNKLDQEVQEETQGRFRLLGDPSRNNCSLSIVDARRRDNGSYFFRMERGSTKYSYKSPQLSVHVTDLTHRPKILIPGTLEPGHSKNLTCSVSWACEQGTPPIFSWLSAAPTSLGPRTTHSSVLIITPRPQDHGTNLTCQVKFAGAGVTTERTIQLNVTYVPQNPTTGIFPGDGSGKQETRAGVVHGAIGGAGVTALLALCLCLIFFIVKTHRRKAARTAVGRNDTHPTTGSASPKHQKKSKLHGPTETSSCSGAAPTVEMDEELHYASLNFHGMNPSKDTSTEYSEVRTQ
Assay: cell-based or functional assay

Row | Binder | EC50 on HL-60 [pM] (cytotoxicity)
1 | B1 | 9.6 pM
2 | B2 | 2.8 pM
3 | B3 | 2.7 pM
4 | B4 | 1.6 pM

Molecular target: T2, human CD3 on T cells (human, UniProt P07766 23-207)
T2 sequence (P07766 23-207): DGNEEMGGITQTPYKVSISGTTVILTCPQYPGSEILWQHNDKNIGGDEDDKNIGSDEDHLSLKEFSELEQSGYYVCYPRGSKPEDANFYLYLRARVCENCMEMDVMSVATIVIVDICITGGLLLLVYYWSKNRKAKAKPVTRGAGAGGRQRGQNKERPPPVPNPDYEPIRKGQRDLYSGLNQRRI
Assay: cell-based or functional assay

Row | Binder | CD69 Induction EC50 (pM) | T cell Proliferation in PBMC EC50 (pM) | CD25 Induction EC50 (pM)
5 | B1 | 57 pM | 264 pM | –
6 | B2 | 17 pM | 37 pM | 41 pM
7 | B3 | 74 pM | 74 pM | 116 pM
8 | B4 | 21 pM | 48 pM | 39 pM

Molecular target: T1, human CD33 on cells
Assay: flow cytometry, HL-60 cells

Row | Binder | Kd
9 | B1 | 5.6 nM
10 | B2 | 0.4 nM
11 | B3 | 1 nM
12 | B4 | 0.4 nM

Molecular target: T1, human CD33 on cells
Assay: flow cytometry, titration on KG-1 cells

Row | Binder | Kd
13 | B1 | 12.4 nM
14 | B2 | 1 nM
15 | B3 | 1.2 nM
16 | B4 | 0.5 nM

Molecular target: T1, human CD33 on cells
Assay: flow cytometry, titration on HL-60 cells

Row | Binder | Kd
17 | B1 | 5.6 nM
18 | B2 | 0.4 nM
19 | B3 | 1 nM
20 | B4 | 0.4 nM

Molecular target: T1, human CD33 on cells
Assay: flow cytometry, titration on U-937 cells

Row | Binder | Kd
21 | B1 | 39.5 nM
22 | B2 | 5.1 nM
23 | B3 | 6.2 nM
24 | B4 | 1.6 nM

Molecular target: T2, human CD3 on T cells
Assay: flow cytometry, human T-cells (as headed in Table 10)

Row | Binder | Kd
25 | B1 | 2.3 nM
26 | B2 | 97.2 nM
27 | B3 | 69.5 nM
28 | B4 | 86.3 nM

Molecular target: T2, human CD3 on T cells
Assay: flow cytometry, titration on human CD3+ T cells (Jurkat per paragraph 124/paragraph 125)

Row | Binder | Kd
29 | B1 | 2.3 nM
30 | B2 | 97.2 nM
31 | B3 | 69.5 nM
32 | B4 | 86.3 nM

Molecular target: cynomolgus CD33 on CHO cells (cynomolgus monkey)
Assay: flow cytometry; KD on CHO-cynomolgus CD33 cells divided by KD on CHO-human CD33 cells

Row | Binder | KD ratio cynoCD33/ huCD33
33 | B1 | 1.8
34 | B2 | 1.9
35 | B3 | 0.8
36 | B4 | 0.8
